Assay results: the supplement of paper PMC10567573

B1: BTBD10 (parent)
chain: FVYENAKEGARNIRTSERVTLIVD

Variants of: B1
Assay: protein stability index of a GFP-peptide fusion (GPS, HEK-293T) (PSI 1-6); higher = more stable
Details: c terminus: a fixed tail appended
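Also: lentivirally expressed fusions sorted by FACS into six bins by GFP to DsRed ratio, PSI derived from sequencing read proportions per bin multiplied by bin number.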

Compared with FVYENAKEGARNIRTSERVELIVD [T20E], FVYENAKEGARNIRTSERVRLIVD [T20R] is lower in protein stability index: 2.06 for the first, 1.81 for the second.

Going from FVYENAKEGARNIRTSERVHLIVD [T20H] to FVYENYKEGARNIRTSERVTLIVD [A6Y], the protein stability index falls from 2.06 to 1.57.

Compared with FVYENCKEGARNIRTSERVTLIVD [A6C], FVYENVKEGARNIRTSERVTLIVD [A6V] is higher in protein stability index: 1.82 for the first, 1.85 for the second.

Going from FVYENFKEGARNIRTSERVTLIVD [A6F] to FVYENSKEGARNIRTSERVTLIVD [A6S], the protein stability index falls from 1.8 to 1.78.

First: FVYENMKEGARNIRTSERVTLIVD [A6M]
Second: RVYENAKEGARNIRTSERVTLIVD [F1R]
The protein stability index of the first is lower: 2.08 for the first, 3.3 for the second.

First: QVYENAKEGARNIRTSERVTLIVD [F1Q]
Second: YVYENAKEGARNIRTSERVTLIVD [F1Y]
The protein stability index of the first is higher: 2.9 for the first, 2.27 for the second.

Going from KVYENAKEGARNIRTSERVTLIVD [F1K] to CVYENAKEGARNIRTSERVTLIVD [F1C], the protein stability index falls from 3.28 to 2.5.

First: WVYENAKEGARNIRTSERVTLIVD [F1W]
Second: FVYENAKEGARNICTSERVTLIVD [R14C]
The protein stability index of the first is higher: 2.55 for the first, 1.83 for the second.

Going from FVYENAKEGARNITTSERVTLIVD [R14T] to FVYENAKEGARNIQTSERVTLIVD [R14Q], the protein stability index falls from 2.14 to 2.08.

First: FVYENAKEGARNILTSERVTLIVD [R14L]
Second: FVYENAKEGARNIPTSERVTLIVD [R14P]
The protein stability index of the first is lower: 1.55 for the first, 1.85 for the second.

Going from FVYENAKEGARNIKTSERVTLIVD [R14K] to FVYENAKEGARNIWTSERVTLIVD [R14W], the protein stability index rises from 1.68 to 2.87.

Going from FVYENAKEGARNIRTSERVTLIFD [V23F] to FVYENAKEGARNIRTSERVTLIWD [V23W], the protein stability index falls from 1.99 to 1.4.

First: FVYENAKEGARNIRTSERVTLIDD [V23D]
Second: FVYENAKEGARNIRTSERVTLIMD [V23M]
The protein stability index of the first is higher: 2.39 for the first, 2.04 for the second.

First: FVYENAKEGARNIRTSERVTLIGD [V23G]
Second: FVYENAKEGARNIRTSERVTLIAD [V23A]
The protein stability index of the first is lower: 2.11 for the first, 2.26 for the second.

Compared with FVYENAKEGARNIRTSERVTLIID [V23I], FVYENAKEGARNIRTSERVTLIKD [V23K] is higher in protein stability index: 1.82 for the first, 2.06 for the second.

Going from FVYENAKEGARNIRTSERVTLIPD [V23P] to FVYENAKEGARNIRTSERVTLISD [V23S], the protein stability index falls from 3.05 to 2.25.

Compared with FVYENAKEGARNIRTSERVTLILD [V23L], FVYENAKFGARNIRTSERVTLIVD [E8F] is lower in protein stability index: 2.07 for the first, 1.86 for the second.

First: FVYENAKLGARNIRTSERVTLIVD [E8L]
Second: FVYENAKPGARNIRTSERVTLIVD [E8P]
The protein stability index of the first is lower: 2.29 for the first, 2.44 for the second.

Going from FVYENAKRGARNIRTSERVTLIVD [E8R] to FVYENAKSGARNIRTSERVTLIVD [E8S], the protein stability index falls from 2.83 to 1.72.

First: FVYENAKQGARNIRTSERVTLIVD [E8Q]
Second: FVYENAKNGARNIRTSERVTLIVD [E8N]
The protein stability index of the first is lower: 1.8 for the first, 1.81 for the second.

First: FVYENAKKGARNIRTSERVTLIVD [E8K]
Second: FVYENAKIGARNIRTSERVTLIVD [E8I]
The protein stability index of the first is higher: 1.93 for the first, 1.87 for the second.

First: FVYENAKEGARNIRTSEHVTLIVD [R18H]
Second: FVYENAKEGARNIRTSEWVTLIVD [R18W]
The protein stability index of the first is lower: 1.98 for the first, 2.27 for the second.

Compared with FVYENAKEGARNIRTSEMVTLIVD [R18M], FVYENAKEGARNIRTSEYVTLIVD [R18Y] is lower in protein stability index: 1.97 for the first, 1.44 for the second.

Compared with FVYENAKEGARNIRTSEKVTLIVD [R18K], FVYENAKEGARNIRTSEIVTLIVD [R18I] is lower in protein stability index: 2.1 for the first, 1.66 for the second.

Going from FVYENAKEGARNIRTSEAVTLIVD [R18A] to FVYENAKEGARNIRTSESVTLIVD [R18S], the protein stability index rises from 1.77 to 1.89.

Going from FVYENAKELARNIRTSERVTLIVD [G9L] to FVYENAKEYARNIRTSERVTLIVD [G9Y], the protein stability index falls from 2.12 to 1.41.

First: FVYENAKEVARNIRTSERVTLIVD [G9V]
Second: FVYENAKEAARNIRTSERVTLIVD [G9A]
The protein stability index of the first is lower: 1.77 for the first, 1.85 for the second.

Going from FVYENAKETARNIRTSERVTLIVD [G9T] to FVYENAKEPARNIRTSERVTLIVD [G9P], the protein stability index falls from 2.09 to 2.02.

First: FVYENAKEGNRNIRTSERVTLIVD [A10N]
Second: FVYENAKEGFRNIRTSERVTLIVD [A10F]
The protein stability index of the first is lower: 2.16 for the first, 2.18 for the second.

Compared with FVYENAKEGPRNIRTSERVTLIVD [A10P], FVYENAKEGSRNIRTSERVTLIVD [A10S] is lower in protein stability index: 2.7 for the first, 2.01 for the second.

Compared with FVYENAKEGQRNIRTSERVTLIVD [A10Q], FVYENAKEGKRNIRTSERVTLIVD [A10K] is higher in protein stability index: 2.05 for the first, 2.32 for the second.

Compared with FVYENAKEGHRNIRTSERVTLIVD [A10H], FVYENAKEGDRNIRTSERVTLIVD [A10D] is higher in protein stability index: 1.58 for the first, 2.26 for the second.

Going from FVYENAKEGWRNIRTSERVTLIVD [A10W] to FVYENAKEGVRNIRTSERVTLIVD [A10V], the protein stability index falls from 2.32 to 2.1.

Compared with FVYENAKEGARAIRTSERVTLIVD [N12A], FVYENAKEGARFIRTSERVTLIVD [N12F] is higher in protein stability index: 1.82 for the first, 2.65 for the second.

Compared with FVYENAKEGARYIRTSERVTLIVD [N12Y], FVYENAKEGARSIRTSERVTLIVD [N12S] is lower in protein stability index: 2.61 for the first, 1.97 for the second.

First: FVYENAKEGARWIRTSERVTLIVD [N12W]
Second: FVYENAKEGARNIRTSERVTLTVD [I22T]
The protein stability index of the first is higher: 3.12 for the first, 2.41 for the second.

First: FVYENAKEGARNIRTSERVTLWVD [I22W]
Second: FVYENAKEGARNIRTSERVTLHVD [I22H]
The protein stability index of the first is higher: 3.09 for the first, 2.2 for the second.

Compared with FVYENAKEGARNIRTSERVTLMVD [I22M], FVYENAKEGARNIRTSERVTLCVD [I22C] is lower in protein stability index: 2.77 for the first, 2.33 for the second.

First: FVYENAKEGARNIRTSERVTLEVD [I22E]
Second: FVYENAKEGARNIRTSERVTLGVD [I22G]
The protein stability index of the first is higher: 3 for the first, 1.72 for the second.

Going from FVYENAKEGARNIRTSERVTLYVD [I22Y] to FVYENAKEGARNIRTTERVTLIVD [S16T], the protein stability index rises from 1.81 to 1.89.

First: FVYENAKEGARNIRTRERVTLIVD [S16R]
Second: FVYENAKEGARNIRTAERVTLIVD [S16A]
The protein stability index of the first is higher: 2.34 for the first, 1.99 for the second.

Going from FVYENAKEGARNIRTKERVTLIVD [S16K] to FVYENAKEGARNIRTFERVTLIVD [S16F], the protein stability index falls from 2.09 to 1.58.

Compared with FVYENAKEGARNIRTQERVTLIVD [S16Q], FVYENAKEGARNIRTIERVTLIVD [S16I] is higher in protein stability index: 2.18 for the first, 2.38 for the second.

Compared with FVYENAKEGARNIRTHERVTLIVD [S16H], FVYENAKEGARNIRTSERSTLIVD [V19S] is higher in protein stability index: 1.78 for the first, 2 for the second.

First: FVYENAKEGARNIRTSERRTLIVD [V19R]
Second: FVYENAKEGARNIRTSERDTLIVD [V19D]
The protein stability index of the first is lower: 2.34 for the first, 2.48 for the second.

Compared with FVYENAKEGARNIRTSERHTLIVD [V19H], FVYENAKEGARNIRTSERQTLIVD [V19Q] is higher in protein stability index: 2.35 for the first, 2.6 for the second.

First: FVYENAKEGARNIRTSERYTLIVD [V19Y]
Second: FVYENAKEGARNIRTSERMTLIVD [V19M]
The protein stability index of the first is higher: 2.35 for the first, 1.62 for the second.
